Experimental data reported in the nanobody polyreactivity screen of Harvey et al. (2022).

experiment: yeast display, Sf9 membrane polyspecificity reagent, FACS + sequencing; frameworks hold sequencing errors
In short: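 Nanobodies from a synthetic yeast display library (Saccharomyces cerevisiae BJ5465), induced 36–48 hours with galactose, were stained 1 hour at 4 °C with 10% biotinylated, detergent-solubilized Sf9 membrane reagent, enriched on streptavidin microbeads, then FACS-sorted. Anti-HA (expression) and streptavidin (reagent binding) fluorescence set low and high (top ~1%) gates. Polyreactivity labels come from the gate of origin. Genes were colony-PCR amplified, MiSeq 2 × 250 sequenced and filtered by CDR length.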

Row | Sequence | polyreactivity (PSR sort gate)
1 | QLQLVESGGGLVQAGGSLRLSCAPTGRTFYRNAMGCKRPAPGKESELVASIRRNGGSTYYADSVKGRFTITRDNAKNTVYLPMNSMKPEDTAVYYCAAYFSYAGPKGAVYGMDYWGQGTQVTVSS | high polyreactivity
2 | QVQLVESGGGLVQAGGSLRLSCAASGYIFERYAMGWYRPAPGKERELVAAISSGGGRTYYADSVKGRFTISRDNAKNPVYLQMNSLQPEDTAVYYCAADHWWISSYWGQGTQVTVSS | high polyreactivity
3 | QVQLVESGGGLVQAGGSLRLSCAASGFTFPYYAMGWYSQAPGKERELVAAINRSGGITYYADSVRGRFTISRDNAKNTVYLQMKSLKPEDTAVYYCAAPSFGYRTWSVFGSGHDYWGQGTQVTVSS | high polyreactivity
4 | QVQLVESGGGLVQAGGSLRLSCAASGSTFTSYAMGWYRQAPGKERELVASITRSGGRTYYADSVKGRFTISRDNAKNTVYLQMNSLKPEDTAVYYCARRYPGGYYWGQGTQVTVSS | high polyreactivity
5 | QVQLVESGGGLVQAGGSLRLSCAASGSTFKAYAMGWYRQAPGKERELVAAITYNGGSTYYADSVKGRFTISRDNEKNTVYLQMNSLKPEDTAVYYCAKRETGRRDPRRSTQYRYEYWGQGTQVTVSS | low polyreactivity
6 | QVQLVESGGGLVQAGGSLRLSCAASGRTFGRYALGWDRQAPGKDRELVAAISYSTDSTYYADSVKGRFTISRDNAKNTVYLQMNSLKPEDTAVYYCATDSVNVGSYVGDKHDYWGQGTQVTLSS | low polyreactivity
7 | QVQLVESGGGLVQAGGSLRLSCAASGRIFRFYAMGWYRQAPGKERVLVAAITRNVGSTFYADSVKGRFTISRDNAKNTVYLQMNSLKPEDSAVFYCAAESDYYYRYTFDYWGQGTQVTVSS | low polyreactivity
8 | QVHLVVSGGGLVQAGGSLRLSCAAYGRTFRIYAMGWYRQAPGKDRELVARITKRAGSTYYADSVKGRFTISRDNAKNTVYLQMNRLKPEDTSVYYCAADVRVQYRQDLTYDYWGQGTQVTVSS | high polyreactivity
9 | QVQLVESGVGLVQAGGSLRLSSDASGSIFGTYAMGWYRQAPGKERELVAAITGNGGRTYYADSVKGRFTISRDNAKNTVYLQMHSLKAEDTAVYSCAISSSRGGFYYWGQGNQVTVSS | high polyreactivity
10 | QVQLVESGGGLVQAGGSLRLSCAASGRTFAYYAMGWYRQAPGKERELVATITWNGGSTYYADSVKGRFTISRDNAKNTVYLQMNSLKPEDTAVYYCAVRLWFDYNYWGQGTQVTVSS | low polyreactivity
11 | QVQLVESGGGLVQAGGSLRLSCAGSGFTFIIYAMGWYREAPGKERELVAAITRSGGSTYYADSVKGRFTISRDNAKNTVYLQMNSLKPEDTAVYYCAAALSVRFYFWGQGTQVTVSS | high polyreactivity
12 | QVQLVESGGGLVQAGGSLRLSCAASGFIFAYYAMGRYRQAPGKERELVAAITIDGSTYYADSVKGRFTIHDNAKNTVYLQMNRLKPEDTAVYYCNAGRWVYWQNNFGDYGYWGQGTQVTVSS | low polyreactivity
13 | QVQLVESGGGLVQAGGSLRLSCAASGGIFRSYAMGWYRQAPGKETELVAAISWSTVSTYADSVKGRFTISRDNAKNTVYLQMYSLKPEDSAVYYCAASPFEYCYYYYGLYKEYYYWGQGNQVTVSS | low polyreactivity
14 | QVQLVESGGGLVQAGGSLRLRCAASGRTFWWNAMGWYRQAPGKERELVAGTYSRGGGTYYADSVKGRFTISRDNAKNRVYLQMNRLKAEDTAVYYCASQAPVYRYYYWGQGTQVTVSS | high polyreactivity
15 | QVQLVESGGGLVQAGGSLRLTCAASGRIFTVYAMGWYRQAPGKERELVAAIDFSDGTTYYADSVKGRFTISRDNAKNTVYLQMNSLKPEDTAVYYCAAEGGSALDDDYWGQGTQVTVSS | high polyreactivity
16 | QVQLVESGGGLVQAGGSLRLSCAASGFTLKRYAMGWYRQAPGKERELVAAISTGGSTYYADSVKGRFTISRDNAKNTVYLQMNSLKPEDTAVYYCAAKRYNRLRSYRYSDREDYWGQGTQVTVSS | high polyreactivity
17 | QVQLVESGGGLVQAGGSLRLSCAASGITFRRYTMGWYRQAPGKERELVATISLSDGNTYYADSVKGRFTISRDNAKNTVYLQMNSLKPEDTAVYYCNALHTWHQTYYYWGQGTQVTVSS | low polyreactivity
18 | QVHLVESGGGLVQAGGSLRLSCAASGSIFEENAMGWYRQAPGKERELVAVISTRDGRTYYADSVKGRFTISRDNAKNTVYLQMNSLKPEDTAVYYCAASPDPYWRRMDYWGQGTQVTVSS | high polyreactivity
19 | QVQLVESGGGLVQAGGSLRLSCAASGSIFWYNAMGWSRPAPGKERELVAAITWSGGSTYYADSVKGRFTISRDNAKNTVYLQMNSLKPEDTAVYYCATVPHYYYDYDYWGQGTQVTVSS | low polyreactivity
20 | QVQLVESGGGLVQAGGSLRLSCAACGSIFYLNAMGWYRQAPGKERELVAAITNGGSTYADSVKGRFTISRDNAKNTVYLQMNSLKPEDTAVYYCATRSWELGDYWGQGTQVTVSS | low polyreactivity
21 | QVHLVESGGGLVQAGGSLRLSCPASGRIFDWYAMGCYRQAPGKEREFVAVIDSSGGTYYADSVKGRFTISRDNAKNTVYLQMNSLKPEDTAVYYCAAEYGWWSFPEYDYWGQGTQVTVSS | low polyreactivity
22 | QVQLVESGGGIVQAGGSLRLSCAASGRTFKSNAMGWSIQAPGKERELVAAISRSGVRTDYADSVKGRFTISRDNANITVYLQMNSLKPEDTAVYYCADRTWNRRSPYDYWGQGTQVTVSS | high polyreactivity

Row | Sequence | polyreactivity (PSR sort gate)
23 | QVQLVESGGGLVQAGGSLRLSCAASGSIFIGYAMGWYRQAPGKERELVAAISNSGGRTYYADSVKGRFTISRDNAKNTVYLQMNSLKPEDTAVYYCNVAYRIPYRMDYWGQGTQVTVSS | high polyreactivity
24 | QVQLVESGGGLVQAGGSLRLSCAASGSIFPRYAMGWYRQAPGKERELVAAITGSGSSTYYADSVKGRFTISRDNAKNTVYLQMNSLKPEDTAVYYCAALYGPGREYDYWGQGTQVTVSS | low polyreactivity
25 | QVQLVESGGGLVQAGGSLRLSCAASGSIFLYARGWYRQAPGKERELVAAINRRGGSTYYADSVKGRFTISRDNAKNTVYLQMNSLKPEDTAVYYCAVVYLLPRYWWRYDYWGQGTQVTVSS | low polyreactivity
26 | QVQLVESGGGLVQAGGSLRLSCAASGATFSVNAMGWYRQAPGKEREWVAAISSTGSTKYADSVKGRFTISRDNAKNPVYLQMNSLKPEDTAVYCAASNADYEYYPFSVWYFSPYDYWGHGTQVTVSS | low polyreactivity
27 | QVQLVESGGGLVQAGGSLRLSCAASGSIFYRYAMGWYRQAPGKERELVAAINDSGGGTYYADSVKGRFTISRDNAKNTVYLQMNSLKPEDTAVYYCAAATHNKHTARDDYWGQGTQVTVSS | low polyreactivity
28 | QVQLVESGGGLVQAGGSLRLSCAASGYTFYAYAMGWYRQAPGTERELVAAITSGSSTYYADSVKGRFTISRDNAKNTVYLQMNSLKPEDTAVYYCSAEVFPGYDYWGQGTQVTVSS | low polyreactivity
29 | QVQLVESGGGLVQAGGSLRLSCAASGIFASYAMGWYRQAPGKERELVADITWRGGNTFYADSVKGRFTISRDNAKNTVYLQMNSLKPEDTAVYYCAADYRPYLRYTVRGYGYWGQGTKVTVSS | high polyreactivity
30 | QVHLVDSGGGLVQAGGSLRLSCAASGIIFTGNAMGWYRQAPGKERELVAGITGSGGNTYYADSVKGRFTISSDNAKNTVYLQMNCLKPEDTAVYYCAARRHIFLLIIWSGRVDYWGQGTQVTVSS | low polyreactivity
31 | QVQLVESGGGLVQAGGSLRLSCAASGSIIYHYAWGWYRQAPGQERELVDAITRCGGSTYYADSVKGRFTISRDNAKNTVYLQMHSLKPEDTAVYYCAREAGRYAYKYYWWQRTDYDYGGQGTQVTVSS | low polyreactivity
32 | QVQLVESGGGLVQAGGSLRLSCAASGSIFPGYAMGWYRQAPGKERELVATITYSDGSTYYADSVKGRFTISRDNAKNTVYLQMNSLKPEDTAVYYCAVTYWWYYGYDYWGQGTQVTVSS | low polyreactivity
33 | QVQLVESGGGLVQAGGSLRLSCAASGFIFGSYAMGWSRQAPGKERELVDAITRGGGNTYYADSVKGRFTISRDNAKNTVYLQMNSLKPEDTAVYYCAAVWGKRGYYYWGQGTQVTVSS | high polyreactivity
34 | QVQLVESGGGLVQAGGSLRLSCAASGRIFAYYVMGWYRQGPGKERELVASISSGGGTYYADSVKGRFTISRDNAKNTVYLQMNSLKPEDTAVYYCAARWRRYVYPDGHLFWYDYWGQGTQVTVSS | high polyreactivity
35 | QVQLVESGGGLVQAGGSLRLSCAASGHIFFYYTMGWYRPAPGKERELVAGITIGGSTNYADSVKGRFTISRDNAKNTVYLQMNSLKPEDTAVYYCNVVKYVYIYSYWEYYYWGQGTQVTVSS | low polyreactivity
36 | QLQLEESGRGLVQAGGSLRLSCAASGSIFYSNTMGWYRQAPGKERELVAAISTSDTSTYYADSVKGRFTISREKAKNTVYLQMNSLKPEDTAVYYCNAVGSIVLYGYWGQGTQVTVSS | low polyreactivity
37 | QVQLVESGGGLVHAGGSLGLSCAASGSIFYEYVMGWYRQAPGKERELVATIDLNGGSTTYADSVKGRFTISRDNAKNTDYLQMNSLKPEDTAVYYCAAQTGFVSHFFWHYDYWGQGSQVTVSS | low polyreactivity
38 | QVQLVESGGGLVQAGGSLRLSCAASGFIFGYYAMGWYRQAPGKERELVAAITSGTSTNYADSVKGRFTISRDNAKYTVYLQMNSLKPDDTAVYYCAADRWRRRFYYWGQGTQVTVSS | high polyreactivity
39 | QVQLVESGGGLVQAGGSLRLSCAASGRTFKKYAMGWYRQAPGKERELVAAITGSGGSTYYADSVKVRYTISRDNAKNTVYLQMNSLKPEDTAVYYCAAYAYGVGHSQDGGNYWGQCTQVTVSS | low polyreactivity
40 | QVQLVESGGGLVQAGGSLHLSCAASGSIFPYNLMGWYRQAPGKERELVAAISNTGSTNYADSVKGRFTISRDNAMNTVYFQMNSLKPDDTAVYYCNADGSYGFWSLLDYDYWGQGTQVTVSS | low polyreactivity
41 | QVQLVESGVGLVQAGGSLRLSCAASGSTFYPNAMGWYRQAPRKERELVAAISRGTRTKYADSVKGRFTISRDNAKNTVYLQMNSLKPEDTAVYYCAADTGTGLDWGQGTQVTVSS | high polyreactivity
42 | QVQLVESGGGLVQAGGSLRLSCAASGSIFVANAMGWYRQAPVKERELVAAISRRGGSTYYADSVKGRFTISRDNAKNTVYLQMNSLKPEDTAVYYCAAEDVYEYDYWGQGTQVTVSS | high polyreactivity
43 | PVQLVESGGGLVQAGGSLRLSCAASGRTFGLNGKGWYRQSPGKEREFVATITGSGTSTYYADSVKGRFTISRDNAKNTVYLQMNSLKPEDSAVYFCAALSGLWGYHYYHEYYYWGQGTQVTVSS | low polyreactivity
